According to the DeepSol protein solubility set:

Assay: soluble on expression in E. coli; label from the status in PepcDB or PDB records

Sequence: MSDARLAELAAAVGLQLDWQDANGRPQRVDPEVQRGLLEALGYPAQSPQQIEQSLAALARLREDSANLGLLVGECGQPLEQALGPAGTPGELVYEDGTRIALRLDAEGRLPAQARSGYAQLSLEQREWAVAMAPPSCPSLASLAPGRSRRWGLAAQVYALRRPGDGGLGDSAALEDLLRSAARHGADALAISPLHALAEANGHAYSPYSPSSRLFFNVLHAAPATILGAAAVEQAIRRAGLAAEMARLESLELIDWTAAADLRMRLLRQLHRDFTERASPLRHDLAEFRREAGEALLHHCRFETLQAHLGAGPDWRRWPEPLRRPGEPAVAAFCADHAEEVDFRAFGQWLTQRCLQHAQRQAREAGMAIGLVADLAVGADGGGSQAWSRQEELLAEVNVGAPPDILNQSGQDWGVSAFNPEGLRRHGYRAFREMLRANLAWPGGLRIDHVMGLQRLWLIPRGQPPHAGAYLRYPQRELLRLLALEASRASALVIGEDLGTVPEGLREELARRQVLGTRVLLFERRGERFVPPAQWPADAMATTSTHDLPSLSGWWRGRDIHWRGRAGHRSAEECAADLELRAEERRALAASLEPPVDPDPAAEVPLDACIGYVGATPAPLVLLPLEDALGSLEQPNLPGPGDAHPNWRRRWPENAAQMLGTPQVDRRLRLLERSRRDAEEA
- soluble on expression in E. coli: not soluble

Sequence: FLVPPTVEQKTRPFTLPNLPLSSLSNSRAPLPISSMGISPDNVQSVQFQNGRCTLDGRLVGTTPVSLSHVAKIRGTSNGTVINLTELDGTPFHPFEGPAPIGFPDLGGCDWHINMTQFGHSSQTQYDVDTTPDTFVPHLGSIQANGIGSGNYVGVLSWISPPSHPSGSQVDLWKIPNYGSSITEATHLAPSVYPPGFGEVLVFFMSKMPGPGAYNLPCLLPQEYISHLASEQAPTVGEAALLHYVDPDTGRNLGEFKAYPDGFLTCVPNGASSGPQQLPINGVFVFVSWVSRFYQLKPVGTASSARGRLGLRR
- soluble on expression in E. coli: soluble

Sequence: DPFEDLDALGSILEEKYGLLEAHVVFSPTPDYAGITHDLSRYGAEYMHETVKDGDIVGVSWGTTMYQIAQNMQPKQVKGVEVVQLKGGISHSRVNTYSAETIQLFAEAFQTMPRYLPLPVVFDNADVKRMVEKDRHIERIIEMGKQANIALFTVGTVRDEALLFRLGYFNEEEKALLKKQAVGDICSRFFDAKGNICSSAINDRTIGVELQDLRLKERSILVAGGSRKVSSIHGALTGKYANVLIIDQHTARALVNDL
- soluble on expression in E. coli: not soluble

Sequence: MSLATIYDVSVLAGVSLATVSRVMNKNTNVSEKTKKKVQDAMDQLGYRPSSIAQSLASNRSNSIGVLVSQLDGPFYGPMMTEIETALRDANKHVIIAAGHSNETQEKEAVEFLLDRGCDALILDVEALSDEYIINLCQQSTPIVLINRFISEIEERCIYLNNALGGYLATKHVLSQGHTQLAYIAGPQFKSDARERLEGHKQALAEFEVTFDETLFFEGNFREPSGVSAMEYLLKQDKQFTCVISANDQMASGAIAVSLERDISVPKQLSFIGYDNSPFPKYISPKLSTVSNPIQEMGKMAALWVLKNVYNKPDLSIVNTFTPQLILRDSVKEGHHHHHH
- soluble on expression in E. coli: soluble

Sequence: MSHLDNGFRSLTLQRFPATDDVNPLQAWEAADEYLLQQLDDTEIRGPVLILNDAFGALSCALAEHKPYSIGDSYISELATRENLRLNGIDESSVKFLDSTADYPQQPGVVLIKVPKTLALLEQQLRALRKVVTPDTRIIAGAKARDIHTSTLELFEKVLGPTTTTLAWKKARLINCTFNEPPLADAPQTVSWKLEGTDWTIHNHANVFSRTGLDIGARFFMQHLPENLEGEIVDLGCGNGVIGLTLLDKNPQAKVVFVDESPMAVASSRLNVETNMPEALDRCEFMINNALSGVEPFRFNAVLCNPPFHQQHALTDNVAWEMFHHARRCLKINGELYIVANRHLDYFHKLKKIFGNCTTIATNNKFVVLKAVKLGRRR
- soluble on expression in E. coli: soluble

Sequence: MKIRTSMIALSLAALLSGCQSLNTEGLMQSGAQAFQAATLNDADVKALSEKSCVEMDQKAQIASADSQYGKRMAKIAAALGDNINGTPANYKVYVTKDVNAWAMANGCIRVYSGLMDMMTDNEVEGVVGHEMGHVALGHTRKAMQVAYGTTALRTAIASAGGVVGTLSQSQLADLGEKLVNAQFSQKQESEADDYSFDLLKKRGIDPNGLVTSFEKLASMEAGRNSSMFDDHPSSQARAEHIRQRIAAEK
- soluble on expression in E. coli: not soluble

Sequence: MSELRALIREILVEELAALRAAPAATPACEMVDVHSDEALMAFARDLLGRANDPEFVRCVQSGQHRFTLAPTVAQPPGQRPAPAASFTLVASAPAEAPRFEKALVTERDVAAIPRDQSRIRLARNTRLTPLASDELRRRGIRIERTQK
- soluble on expression in E. coli: not soluble

Sequence: TAVEPLALIRADGPTLPARGMHKPALCIIAQGRKEVQLAEERYIYDPLHYLVVSVTLPLAGQVIDASPDAPYLCVRLDIDPAEITQLISDAGPMEVASRRGDRGLYVDRIDASLLDAVLRLIHLLDSPRDIPMLAPLILREIFYRLLRSGQGQRL
- soluble on expression in E. coli: not soluble

Sequence: MAHHHHHHMEESDEDDNIQVIVFGNSSEAKFDDFYREEDIKKEEIQDNINDAMVPNESNEQDKAQNEDVDLESKVQNATKENKVFMKYDYTHEKPWSNHGDKSMWFNYNFDEHTFKEWVQKHIDRKLEKQQNYQIENTDNYFFEDTFKGNMMNTSSVNNQSMQGIKSFPSKNMNPFNTSKLIEHNGSPNYTSNKMDKIKNNNNNNNNKNNSNSNNKNNSNNKNNSNSNNRSDINQTTTNTNNDLKQFQNLINFLKQNN
- soluble on expression in E. coli: not soluble

Sequence: MTHSPSFLQHALSSSDTRAEWPLPGGLAARWLAPGCVELNGDARGADSVLLSCGVHGNETAPIEVVDGMLTDIAAGQLALNCRLLVMFANLDAIRQGVRYGNYDMNRLFNGAHARHPELPESVRAAELETLAAEFFAGARARKLHYDLHTAIRGSVFEKFAIYPFLHDGRTHKREQLAWLQRCGIEAVLLHTQPANTFSYFTSQYCEADAFTLELGKARPFGQNDLSRFSGIDGALRGLLSNPQANVPDLDEDKLPLFRAKYDLVKHSEAFKLNLADSVENFTLLPDGMLIAEDGAVRYQATGGEERILFPNPAVKPGLRAGIVVEPARLPSRLEHHHHHH
- soluble on expression in E. coli: soluble

Sequence: GMSSNVSHFEGTRPVADQQRFDTEALEAWMRQHVEGFAGPLSVEQFKGGQSNPTFKLVTPGQTYVMRAKPGPKSKLLPSAHAIEREYRVMDALAGTDVPVAKMYALCEDESVIGRAFYIMEFVSGRVLWDQSLPGMSPAERTAIYDEMNRVIAAMHTVDYQAIGLGDYGKPGNYFQRQIERWTKQYKLSETESIPAMDSLMDWLPQHIPQEDADLTSIVHGDYRLDNLMFHPTEPRVLAVLDWELSTLGHPMGDFGYHCMSWHIAPGQFRGIAGLDHAALGIPDEASYRKLYEQRTGRPITGDWNFYLAFSMFRIAGILQGIMKRVVDGTASSAQALDAGKRARPMAEMGWEYAKKAKQ
- soluble on expression in E. coli: soluble

Sequence: MGSDKIHHHHHHMSRFAACFEDLPDPRGRNARHPLTSILFIAVAAIVCGAESCTDMADFGVAKKKWLKTIVPLPYGIPSHDTFSTVFRHLDPDAFDAAFRRLTASFAQGLEGVVAIDGKAVRGAYRRAAKATPLHFVNVWAAGPGLVIGQKLAPGRNEVQGALDALALLALEGSIVTADALHCRPDTARAILAAGGDYALALKANQPGLLAQALARIEDADHVESIQIAAETAHDRTETRRASVVAVDDINFPGLQAIGCVETTSRHTNGHLTSHVRYFLLSTTMSPSALIEVVRTHWQIENKLHWVLDVHFREDAARNRKDNGPQNIAFLRKIALNLLRSHPDKASIRRKIKKAGWDDQFLTSLIAHMR
- soluble on expression in E. coli: not soluble

Sequence: MSLTLKLGFKPFSFHLLRSLRTSQGIIKKKEGWLIKLENKTGRLGWGEIAPLNLSELNICGKILEKLGNSPSRQTLEEGIPNWPGSLAFAIGAALAEIDYLIGNDSKNKWLSVTSSALLLPNEESILLNTLQSVLDKHKETQKELTFKWKIRNTSSDSDLNLLKKILFLLPENTRLRIDANGGLNRIQAHEWAQALQNEARIEWLEQPLAVDDIEGMNELAQMLPIALDESLIYNPSLRKSWTGWQIRRPLIEGDPRILLKEFKEKNSYISISTSFETGIGKRWIEHFAALQLRGLTPTQPGLAPGWCPKGPLFCQNPQLVWEAAEGHHHHHH
- soluble on expression in E. coli: soluble

Sequence: MANAFGLSLGTALRRDPAEGPVRPQRPLGRLIWLHAPTRDSARPMAELGRRIILDEGFPVLLTTHVPVSSGGILIVQPPPPDTPAAVAAFLDHWRPDAAFMAEGELRPSLINSAFDRNVPLALVDGAAPRILPGRESWWPGQMRNLLAKFRHIFTLDEAAARAFRKAGSSSHVTQVAGRLEEGSLALPCTEAERAALARLLAPRQVWLAAGLPIEEEAAAIAAHHAALKLAHRMLLIVVPQEPDRAAAFAARCEAEGWKVARRAADEEPDADTEVFVADGMAELGLWYRLAPVTWLGGSLSVGCVLDPLEAASLGSALIHGPHFGPHGATLARLSAARASLPVASARGLAEALADLLAPDRVARLAHAGWAVASEGTEVTDRMVALAGRLVEREALEHHHHHH
- soluble on expression in E. coli: not soluble

Sequence: MSLDKLNAISIFCKVIETQSFTLAAKQQNISVAMASKLVSQLEEHLKTRLLQRTTRKIMPTEAGMMYYQRCQGILLDLDEADSSITQLTSSLQGNLLISVPRDFGLLFIAPNLPTFMAKHPHLHIEVEFNDKKIDLLSEGYDLALRIGYMEDSSLVSRKIGTTTVHFAASPNYLETNGIPQTPDDLEHHNGLLYKNAMNQVNWVGSRINQTQRFKIQSKVVSNSGFALLNMAKAGLGIANLPKFILGRAFEKGELIEILPEYKQQKLEIHVVYPNRRHLPIKVTGISLNFEGHHHHHH
- soluble on expression in E. coli: not soluble

Sequence: MKVLCYGVRDVELPIFEACNKEFGYDIKCVPDYLNTKETAEMAAGFDAVILRGNCFANKQNLDIYKKLGVKYILTRTAGTDHIDKEYAKELGFPMAFVPRYSPNAIAELAVTQAMMLLRHTAYTTSRTAKKNFKVDAFMFSKEVRNCTVGVVGLGRIGRVAAQIFHGMGATVIGEDVFEIKGIEDYCTQVSLDEVLEKSDIITIHAPYIKENGAVVTRDFLKKMKDGAILVNCARGQLVDTEAVIEAVESGKLGGYGCDVLDGEASVFGKDLEGQKLENPLFEKLVDLYPRVLITPHLGSYTDEAVKNMVEVSYQNLKDLAETGDCPNKIK
- soluble on expression in E. coli: soluble

Sequence: MNVVKFGGSSLASAPQLQKVLQIVKEEPRRTFVVVSAPGKRTPQDIKVTDLLIQYYQRYLNNEEIESTISAIIRRYEDLFDELHLDKAVLADIAISIRQLATLPKENNAFLFDYFLASGEDNNAKVVASFFKQNGLDARYISPKELGLLVTPEPGNARILPKALEKISVYRETQQILVIPGFFGYTEAGEICTFSRGGSDITGSIVAAGVQADLYENFTDVDGIYVAHPGIIEQPQTIQELTYREMRELAYAGFAVLHDEALMPAYRANIPVVIKNTNNPHHPGTLITTSRKVKHAPVVGIASDQGFASIYISKYLMNRELGFGRRLLEVLEKLALSYEHMPSGIDDITIVLREDQLTTEIENRLMAQLQEVLAPDELRITHHLSMIMIVGEGMRQRIGVTAESTMALAKEKINLEMINQGSSEVSIMFGIKKEQEEKAIKALYRTFFHD
- soluble on expression in E. coli: not soluble

Sequence: FSQHVSANLNLPSPSLNTPLNWLLTSVDEVMFNQQLHGSAVHINCAFPEPLYSDGEKSAYQSYLSSVEAWRKGGQTYTQRFVSPSFRDIPFCADRKGVVVIGSLSAEHAQEAKAFAQQMGWPVLADPQSGVSSDWSHYDLWLQQPKLASQLDECDLVLQFGSRIISKRLNQWINKQVSQSQQGRDVQYWFISPSLSRDNQTHLPQLHWVASPKSWVERVDVKSSSTQGWADGLLTDIAHVRAHISDEFLFSSASTLNEIALAADIEERTQSVDVFLGNSLFVRLVDMFGRLNTEVFTNRGASGIDGLFATASGVQRSRGKPLLMYIGDTSALYDLNSLALFSRNDLPSVLVVTNNDGGAIFDMLPVPQEHRTAYYQMPHGYQFEHAAKQFGLKYEKPTTLQMYQAMVADHLSSGQGTMLVEVQTPPSQAAELIKAFNKSLHASL
- soluble on expression in E. coli: not soluble
